Results: publication PMC4987164 (Comparative biochemistry and physiology. Part D, Genomics & …, 2016)
“Also recorded” adds a separate entry of the source. Like-named read-outs stand apart in the source and are kept apart here. Blank lines part the entries; values can stand above or below the molecule they belong to.

Experiments:
[1] = target: ESR1 Ligand-binding domain tagged with glutathione-S-transferase (human); experiment: AlphaScreen or HTRF
[2] = target: T1, ESR1 ligand-binding domain (GST-ER LBD) / SRC-3 peptides (Homo sapiens, UniProt P03372); experiment: TR-FRET co-activator peptide recruitment assay, SRC-3 peptides; assay type: biochemical; details: all SRC-3 peptides tested; listed as BPA
T1 sequence (P03372 311-547 limits assumed): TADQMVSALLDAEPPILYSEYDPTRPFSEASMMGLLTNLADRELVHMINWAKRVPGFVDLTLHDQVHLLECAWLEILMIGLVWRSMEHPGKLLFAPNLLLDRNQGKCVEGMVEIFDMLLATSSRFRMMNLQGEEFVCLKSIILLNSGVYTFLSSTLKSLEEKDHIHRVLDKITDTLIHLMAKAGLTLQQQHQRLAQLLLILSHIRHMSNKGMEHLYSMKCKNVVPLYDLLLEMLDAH

[3] = target: T2, human estrogen receptor alpha ligand binding domain (ESR1-LBD) (Homo sapiens, UniProt P03372); experiment: Fluorescence polarization competitive ligand binding assay; details: relative binding affinity calculated from IC50, E2 set at 100%
T2 sequence (P03372 311-547 limits assumed): T1 sequence (P03372 311-547 limits assumed)

ESR1 = target: T3, ESR1 (Homo sapiens, UniProt P03372); experiment: Direct; details: read-out: binding affinity (Kd) for the ESR1–Fl-E1 complex; saturation binding curves (data not shown)
T3 sequence (P03372 311-547 limits assumed): T1 sequence (P03372 311-547 limits assumed)

SRC-1 RID (Homo sapiens) [4] = target: SRC-1 RID (Homo sapiens) (UniProt Q15788); details: cited from earlier work
SRC-1 RID (Homo sapiens) [5] = target: SRC-1 RID (Homo sapiens) (UniProt Q15788); details: cited from earlier work; remark: listed apart in the source

SRC-1 RID (Homo sapiens), sequence (Q15788 570-780): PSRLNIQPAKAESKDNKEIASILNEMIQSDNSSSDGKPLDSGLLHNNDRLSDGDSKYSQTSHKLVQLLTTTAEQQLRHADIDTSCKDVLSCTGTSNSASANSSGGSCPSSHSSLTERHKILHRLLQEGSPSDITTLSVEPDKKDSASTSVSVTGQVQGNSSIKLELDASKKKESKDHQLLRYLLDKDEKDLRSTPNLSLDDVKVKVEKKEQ
ESR1, sequence (P03372 whole entry): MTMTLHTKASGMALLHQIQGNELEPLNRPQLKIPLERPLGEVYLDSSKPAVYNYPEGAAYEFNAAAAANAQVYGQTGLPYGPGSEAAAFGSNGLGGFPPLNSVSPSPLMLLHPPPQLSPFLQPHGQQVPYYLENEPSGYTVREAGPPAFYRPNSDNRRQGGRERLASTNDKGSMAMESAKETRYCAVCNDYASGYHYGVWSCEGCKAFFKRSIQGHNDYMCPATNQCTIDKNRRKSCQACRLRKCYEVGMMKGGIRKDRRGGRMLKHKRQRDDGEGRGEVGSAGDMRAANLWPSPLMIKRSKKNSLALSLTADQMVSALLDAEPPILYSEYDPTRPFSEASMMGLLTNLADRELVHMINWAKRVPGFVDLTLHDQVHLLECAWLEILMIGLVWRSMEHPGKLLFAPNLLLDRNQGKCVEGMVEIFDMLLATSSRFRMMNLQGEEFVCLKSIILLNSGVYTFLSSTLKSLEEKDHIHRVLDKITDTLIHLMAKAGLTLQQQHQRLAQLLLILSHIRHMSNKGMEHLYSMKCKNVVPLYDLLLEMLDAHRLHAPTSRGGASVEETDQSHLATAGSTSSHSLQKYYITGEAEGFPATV

Molecule: SRC-1(2) peptide
- EC50 of 17β-estradiol for recruitment of the peptide [1]: 5.08 nM
- EC50 of bisphenol-A for recruitment of the peptide [1]: 32.3 nM

Molecule: CC12CCC3c4ccc(O)cc4CCC3C1CCC2=NNC(=S)Nc1ccc2c(c1)C(=O)OC21c2ccc(O)cc2Oc2cc(O)ccc21 (stereo not shown) [Fl-E1]
- Kd (ESR1): 2.3 nM

Molecule: ESR1 (from UniProt P03372)
- Kd (SRC-1 RID (Homo sapiens) [4]): 104 nM
- Kd (SRC-1 RID (Homo sapiens) [5]): 21 nM

Further lines, with some results ahead:

- RBA [3]: 0.29%
Molecule: CC(C)(c1ccc(O)cc1)c1ccc(O)cc1 [Bisphenol-A, bisphenol-A]
- recruitment of SRC-3 peptides to ESR1 (in words) [2]: failed to induce interaction of the receptor with SRC-3 peptides; also recorded: failed to recruit any of the SRC-3 peptides

- EC50 of 17β-estradiol for recruitment of the peptide [1]: 8.44 nM
Molecule: SRC-1(1) peptide

- EC50 of 17β-estradiol for recruitment of the peptide [1]: 7.19 nM
Molecule: SRC-3(2) peptide

- EC50 of 17β-estradiol for recruitment of the peptide [1]: 2.74 nM
Molecule: SRC-3(3) peptide
